In data set [1] the test system is HER2 expression in BT-474 human breast cancer cells. Description: In-Cell Western assay (ICW) for HER2 expression in BT-474 cells. Type of data set: cell-based. The procedure: The HDCs as described herein were used in various experiments to determine their activity and properties, such as binding affinity and stability in blood. An in-Cell Western assay (ICW) for HER2 expression was carried out in BT-474 human breast cancer cells. BT-474 cells were seeded in 96-well plates at a density of 20,000 cells per well. Twenty-four hours after plating, cells were dosed with graded concentrations of HDCs using 3-fold serial dilutions and incubated for 24 h. Growth media containing drug was aspirated off. Cells were then fixed in 4% paraformaldehyde for 20 min and washed three times in 0.1% Triton X-100. After blocking for 1.5 h in Odyssey Blocking Buffer (LI-COR, Lincoln, Nebr., USA), cells were incubated with primary HER2 antibody overnight at 4° C. Wells were washed three times with 0.1% Tween-20 and incubated in secondary antibody (LI-COR, Lincoln, Nebr., USA) and DRAQ5 (CST, Beverly, Mass., USA) for 1 h. Following 3 final washes with 0.1% Tween-20, antibody-antigen complexes were visualized using the Odyssey system. For quantification, HER2 signal was normalized to DRAQ5 flourescent probe.

Data set [2] is described as follows: Metabolic stability in mouse whole blood (LC-MS/MS). Type of data set: in vitro ADME. To be noted: for Mouse blood stability 1 h (% remaining): 10 μM. The protocol:
Metabolic stability of various HDCs was tested in mouse blood. All compounds were tested at a concentration of 10 μM. The time dependent disappearance of test compound in mouse whole blood, and the release of the compound qualitatively as determined by liquid chromatography tandem mass spectrometry (LC-MS/MS), was tested at time points of 15 minutes, 30 minutes, 45 minutes and 1 hour. All compounds were tested in duplicate, and the average was taken. The results in Table 2 show the percent of test compound remaining after 1 hour.

The mark [3] stands for this setting: BT-474 cells, 24 h incubation, 3-fold serial dilutions, HER2 signal normalized to DRAQ5, read-out: HER2 (ICW).
Where [4] appears, read: mouse whole blood, percent of test compound remaining after 1 hour, average of duplicate.

Molecules are shown by their SMILES. Like-named read-outs stand apart in the source and are kept apart here.

For `CC(C)Nc1cc(-c2c[nH]c(C(=O)N[C@H](COC(=O)C3CCN(Cc4ccc(-n5c(O)nnc5-c5cc(C(C)C)c(O)cc5O)cc4F)CC3)c3cccc(Cl)c3)c2)c(Cl)cn1` [SDC-TRAP-0517, (S)-2-(4-(5-chloro-2-(isopropylamino)pyridin-4-yl)-1H-pyrrole-2-carboxamido)-2-(3-chlorophenyl)ethyl 1-(4-(3-(2,4-dihydroxy-5-isopropylphenyl)-5-hydroxy-4H-1,2,4-triazol-4-yl)-2-fluorobenzyl)piperidine-4-carboxylate], in data set [1] (setting [3]), the IC50 stood at 202 nM.

As for `CC(C)c1cc(-c2nnc(O)n2-c2ccc(CN3CCC(C(=O)N4CC[C@H](C(=O)OC[C@H](O)Cn5cnc6c(c(Nc7ccc(I)cc7F)c(F)c(=O)n6C)c5=O)C4)CC3)c(F)c2)c(O)cc1O` [SDC-TRAP-0528], the “Mouse blood stability 1 h (% remaining)” value in data set [2] (setting [4]) is 0%.

Consider `CCNC(=O)c1nnc(-c2cc(C(C)C)c(O)cc2O)n1-c1ccc(C(=O)N[C@H](C(=O)N[C@@H](CC(C)C)C(=O)N(C)[C@@H](C(=O)N[C@H](C(=O)N(C)C([C@@H](C)CC)[C@@H](CC(=O)N2CCC[C@@H]2[C@@H](OC)[C@@H](C)C(=O)N[C@@H](C)[C@H](O)c2ccccc2)OC)C(C)C)C(C)C)C(C)C)cc1` (stereo partly drawn) [SDC-TRAP-0538, 4-(4-(((3R,7S,10R,13S,16S)-4-((S)-sec-butyl)-3-(2-((R)-2-((1S,2R)-3-(((1R,2S)-1-hydroxy-1-phenylpropan-2-yl)amino)-1-methoxy-2-methyl-3-oxopropyl)pyrrolidin-1-yl)-2-oxoethyl)-13-isobutyl-7,10-diisopropyl-5,11,17-trimethyl-6,9,12,15-tetraoxo-2-oxa-5,8,11,14-tetraazaoctadecan-16-yl)carbamoyl)phenyl)-5-(2,4-dihydroxy-5-isopropylphenyl)-N-ethyl-4H-1,2,4-triazole-3-carboxamide], for which the fraction remaining at 1 h, 10 μM in data set [2] (setting [4]) was found to be 118%.

`CCNC(=O)c1nnc(-c2cc(C(C)C)c(O)cc2O)n1-c1ccc(N(C)C2CCN(C(=O)CCC(=O)OC[C@H](O)Cn3cnc4c(c(Nc5ccc(I)cc5F)c(F)c(=O)n4C)c3=O)CC2)nc1` [SDC-TRAP-0525, (R)-3-(6-fluoro-5-((2-fluoro-4-iodophenyl)amino)-8-methyl-4,7-dioxo-7,8-dihydropyrido[2,3-d]pyrimidin-3(4H)-yl)-2-hydroxypropyl 4-(4-((5-(3-(2,4-dihydroxy-5-isopropylphenyl)-5-(ethylcarbamoyl)-4H-1,2,4-triazol-4-yl)pyridin-2-yl)(methyl)amino)piperidin-1-yl)-4-oxobutanoate]: the “Mouse blood stability 1 h (% remaining)” value in data set [2] (setting [4]) is 10.8%.

In the case of `CCNC(=O)c1nnc(-c2cc(C(C)C)c(O)cc2O)n1-c1ccc(CN2CCC(C(=O)OC[C@@H](NC(=O)c3cc(-c4cc(NC(C)C)ncc4Cl)c[nH]3)c3cccc(Cl)c3)CC2)c(F)c1` [SDC-TRAP-0518, (S)-2-(4-(5-chloro-2-(isopropylamino)pyridin-4-yl)-1H-pyrrole-2-carboxamido)-2-(3-chlorophenyl)ethyl 1-(4-(3-(2,4-dihydroxy-5-isopropylphenyl)-5-(ethylcarbamoyl)-4H-1,2,4-triazol-4-yl)-2-fluorobenzyl)piperidine-4-carboxylate], in data set [1] (setting [3]), the IC50 was determined as 104 nM.

Turning to `CC(C)Nc1cc(-c2c[nH]c(C(=O)N[C@H](COC(=O)C3(NC(=O)CCn4ccc5cc(-n6c(O)nnc6-c6cc(C(C)C)c(O)cc6O)ccc54)CC3)c3cccc(Cl)c3)c2)c(Cl)cn1` [SDC-TRAP-0508, (S)-2-(4-(5-chloro-2-(isopropylamino)pyridin-4-yl)-1H-pyrrole-2-carboxamido)-2-(3-chlorophenyl)ethyl 1-(3-(5-(3-(2,4-dihydroxy-5-isopropylphenyl)-5-hydroxy-4H-1,2,4-triazol-4-yl)-1H-indol-1-yl)propanamido)cyclopropanecarboxylate], the IC50 in data set [1] (setting [3]) turned out to be 2330 nM. The “Mouse blood stability 1 h (% remaining)” value in data set [2] (mouse, blood, 1 h) was 32.4%.

On to `CCNC(=O)c1nnc(-c2cc(C(C)C)c(O)cc2O)n1-c1ccc(C(=O)N[C@@H](CC(C)C)C(=O)N[C@@H](CC(C)C)C(=O)N(C)[C@@H](C(=O)N[C@H](C(=O)N(C)C([C@@H](C)CC)[C@@H](CC(=O)N2CCC[C@@H]2[C@@H](OC)[C@@H](C)C(=O)N[C@@H](C)[C@H](O)c2ccccc2)OC)C(C)C)C(C)C)cc1` (stereo partly drawn) [SDC-TRAP-0539, 4-(4-(((3R,7S,10R,13S,16S)-4-((S)-sec-butyl)-3-(2-((R)-2-((1S,2R)-3-(((1R,2S)-1-hydroxy-1-phenylpropan-2-yl)amino)-1-methoxy-2-methyl-3-oxopropyl)pyrrolidin-1-yl)-2-oxoethyl)-13-isobutyl-7,10-diisopropyl-5,11,18-trimethyl-6,9,12,15-tetraoxo-2-oxa-5,8,11,14-tetraazanonadecan-16-yl)carbamoyl)phenyl)-5-(2,4-dihydroxy-5-isopropylphenyl)-N-ethyl-4H-1,2,4-triazole-3-carboxamide], for which the share remaining at 1 h, 10 μM in data set [2] (setting [4]) was determined as 106%.

`CCNC(=O)c1nnc(-c2cc(C(C)C)c(O)cc2O)n1-c1ccc(CN2CCC(C(=O)NC(C)(C)C(=O)OC[C@@H](NC(=O)c3cc(-c4cc(NC(C)C)ncc4Cl)c[nH]3)c3cccc(Cl)c3)CC2)c(F)c1` [SDC-TRAP-0514, (S)-2-(4-(5-chloro-2-(isopropylamino)pyridin-4-yl)-1H-pyrrole-2-carboxamido)-2-(3-chlorophenyl)ethyl 2-(1-(4-(3-(2,4-dihydroxy-5-isopropylphenyl)-5-(ethylcarbamoyl)-4H-1,2,4-triazol-4-yl)-2-fluorobenzyl)piperidine-4-carboxamido)-2-methylpropanoate]: the IC50 in data set [1] (setting [3]) amounted to 345 nM. Moreover, the “Mouse blood stability 1 h (% remaining)” value in data set [2] (setting [4]) is 105%.

As for `CC(C)c1cc(-c2n[nH]c(=O)n2-c2ccc3c(ccn3C)c2)c(O)cc1O` [ganetespib, reference compound], in data set [1] (Homo sapiens, BT-474, 24 h, read-out: HER2 (ICW, nM)), the IC50 was found to be 37 nM.

`CC(C)Nc1cc(-c2c[nH]c(C(=O)N[C@H](COC(=O)[C@@H](C)NC(=O)C3CCN(Cc4ccc(-n5c(O)nnc5-c5cc(C(C)C)c(O)cc5O)cc4F)CC3)c3cccc(Cl)c3)c2)c(Cl)cn1` [SDC-TRAP-0519]: the IC50 in data set [1] (setting [3]) is 1650 nM.

As for `CCNC(=O)c1nnc(-c2cc(C(C)C)c(O)cc2O)n1-c1ccc(C(=O)N[C@H](C(=O)N[C@@H](CCCNC(N)=O)C(=O)N(C)[C@@H](C(=O)N[C@H](C(=O)N(C)C([C@@H](C)CC)[C@@H](CC(=O)N2CCC[C@@H]2[C@@H](OC)[C@@H](C)C(=O)N[C@@H](C)[C@H](O)c2ccccc2)OC)C(C)C)C(C)C)C(C)C)cc1` (stereo partly drawn) [SDC-TRAP-0540, 4-(4-(((3R,7S,10R,13S,16S)-4-((S)-sec-butyl)-3-(2-((R)-2-((1S,2R)-3-(((1R,2S)-1-hydroxy-1-phenylpropan-2-yl)amino)-1-methoxy-2-methyl-3-oxopropyl)pyrrolidin-1-yl)-2-oxoethyl)-7,10-diisopropyl-5,11,17-trimethyl-6,9,12,15-tetraoxo-13-(3-ureidopropyl)-2-oxa-5,8,11,14-tetraazaoctadecan-16-yl)carbamoyl)phenyl)-5-(2,4-dihydroxy-5-isopropylphenyl)-N-ethyl-4H-1,2,4-triazole-3-carboxamide], the fraction remaining at 1 h, 10 μM in data set [2] (setting [4]) amounted to 55.5%.

(Values after US20190060473A1, “HSP90 INHIBITOR DRUG CONJUGATES” (priority 2016, published 2019).)
